Assay results from US7419670B2, “Method of treating arthritis with SERP-1 and an immunosuppressant” (Viron Therapeutics, Inc., priority 2000, dated 2008).

Key:
[1] = tested on: Collagen-induced Arthritis (CIA) in Rats; experiment: CIA in rats: blinded radiographic scoring of the ankle joint at study termination; assay type: in vivo, rats (Louvain); details: mean ± SD; control group 4.27±1.68; p=0.02
Procedure: Twenty four rats (Louvain) weighing 125-150 g were housed at the UCLA vivarium facility and were fed standard laboratory chow and water.
Type II collagen, (CII) was prepared by pepsin treatment of chick sternal cartilage or was purchased from Genzyme (Boston, Mass.). Rats were anesthetized with ether and were immunized intradermally at several sites on the back, with 0.5 mg native CII solubilized in 0.1M acetic acid and emulsified in FIA (Difco, Detroit, Mich.). The signs and symptoms of rheumatoid arthritis developed over a period of ten days after immunization with collagen. (Oliver and Brahn, (1996) J. Rheumatol. 23, S44-56-60, incorporated herein by reference).
Cyclosporin at (4 mg/kg/d; sc) was administered by osmotic pump for the duration of the study. […]
The incidence and severity of chronic arthritis in SERP-1/CsA treated and untreated rats was evaluated via a number of study endpoints. During the experimental phase of the study, the individual hind limbs of each rat was evaluated daily and arthritis severity was quantified by assigning a score (0=normal, 4=maximum/hindpaw) based on increasing levels of swelling and periarticular erythema. The daily, arthritic severity scores for each rat were recorded from disease onset (day 10) until study termination (Table 1). […]

[2] = tested on: intimal fatty cellular proliferation associated with restenosis; details: rabbits following balloon angioplasty; cited from earlier work

B1: SERP-1: viral serine protease inhibitor produced by malignant rabbit fibroma virus and myxoma virus; sequence of SEQ ID NO: 1 (protein, listed as Myxoma virus)
chain: MKYLVLVLCLTSCACRDIGLWTFRYVYNESDNVVFSPYGLTSALSVLRIAAGGNTKREIDVPESVVEDSDAFLALRELFVDASVPLRPEFTAEFSSRFNTSVQRVTFNSENVKDVINSYVKDKTGGDVPRVLDASLDRDTKMLLLSSVRMKTSWRHVFDPSFTTDQPFYSGNVTYKVRMMNKIDTLKTETFTLRNVGYSVTELPYKRRQTAMLLVVPDDLGEIVRALDLSLVRFWIRNMRKDVCQVVMPKFSVESVLDLRDALQRLGVRDAFDPSRADFGQASPSNDLYVTKVLQTSKIEADERGTTASSDTAITLIPRNALTAIVANKPFMFLIYHKPTTTVLFMGTITKGEKVIYDTEGRDDVVSSV
- joint erosions (radiographic score) [1]: 2.58±1.88
- intimal fatty cellular proliferation associated with restenosis [2]: decrease
